Tested on: peptide library, one residue held at a place counted from the Y acceptor
Experiment: relative phosphorylation of the sub-library (ratio to the mean residue at this position); higher = residue favoured
Method in brief: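 Each value expresses phosphorylation relative to the mean randomized residue. Purified recombinant kinases acted for 90 min in 384-well plates on biotinylated Tyr-centred peptide library mixtures, with one residue fixed at one position from −5 to +5, in the presence of 50 μM ATP with γ-32P-ATP. Signals were read by phosphorimaging after capture on streptavidin membranes, then normalized per position to the sum of the 18 randomized residues (16 in the Ser/Thr-free library) and multiplied by that number.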

Sequence of FGFR3, construct: aa397-end, human (P22607 397-806, looked up): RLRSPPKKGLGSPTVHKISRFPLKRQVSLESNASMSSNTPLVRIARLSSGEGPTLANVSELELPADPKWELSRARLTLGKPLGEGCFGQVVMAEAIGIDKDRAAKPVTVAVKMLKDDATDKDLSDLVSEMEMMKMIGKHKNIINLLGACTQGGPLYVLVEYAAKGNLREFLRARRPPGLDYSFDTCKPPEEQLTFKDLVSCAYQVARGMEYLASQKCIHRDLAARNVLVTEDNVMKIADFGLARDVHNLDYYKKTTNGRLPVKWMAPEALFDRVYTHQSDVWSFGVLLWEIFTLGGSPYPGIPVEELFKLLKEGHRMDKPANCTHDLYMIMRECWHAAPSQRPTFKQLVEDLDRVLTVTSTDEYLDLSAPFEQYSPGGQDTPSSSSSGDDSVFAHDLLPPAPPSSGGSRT
Sequence of WEE1, construct: aa215-end, human (P30291 215-646, looked up): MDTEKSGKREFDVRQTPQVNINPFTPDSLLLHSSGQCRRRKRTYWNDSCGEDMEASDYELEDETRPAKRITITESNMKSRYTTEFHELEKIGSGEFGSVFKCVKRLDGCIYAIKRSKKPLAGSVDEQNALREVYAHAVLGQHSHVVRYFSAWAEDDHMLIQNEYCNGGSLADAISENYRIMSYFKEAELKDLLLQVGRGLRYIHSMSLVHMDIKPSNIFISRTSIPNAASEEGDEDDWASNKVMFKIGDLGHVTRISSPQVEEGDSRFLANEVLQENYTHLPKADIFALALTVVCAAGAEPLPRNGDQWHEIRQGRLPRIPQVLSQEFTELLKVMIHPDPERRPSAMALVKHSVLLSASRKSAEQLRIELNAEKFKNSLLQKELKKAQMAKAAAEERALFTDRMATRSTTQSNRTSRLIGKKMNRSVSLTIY

WEE1, construct: aa215-end, human (from UniProt P30291)
relative phosphorylation
Settings	at +1	at +2	at +3	at +4	at +5	at -1	at -2	at -3	at -4	at -5
A fixed	0.635	0.703	0.557	0.811	0.707	0.72	0.888	0.817	0.926	1.01
D fixed	0.354	0.437	0.425	0.604	0.562	0.619	0.593	0.846	0.849	0.957
E fixed	0.445	0.474	0.464	0.697	0.657	0.467	0.742	0.901	1.22	0.881
F fixed	0.997	1.33	0.969	0.816	0.746	2.25	0.867	1.26	1.13	1.14
G fixed	1.03	0.713	0.776	0.921	0.88	0.693	1.54	1.06	1.24	1.15
H fixed	0.739	0.685	0.93	0.927	1.05	1.04	0.85	0.748	0.809	0.762
I fixed	1	1.04	1.2	0.781	0.881	1.15	0.943	1.24	1.21	1.03
K fixed	1.44	1.9	2.15	2	1.9	0.93	1.04	1.1	0.986	1.1
L fixed	0.815	0.945	0.806	0.752	0.833	1.61	0.866	1.11	1.05	1.15
M fixed	0.892	1.03	0.922	1.11	0.9	1.2	0.741	1.06	0.977	1.01
N fixed	0.952	0.875	0.74	0.762	0.89	1.45	1	0.817	0.747	0.872
P fixed	0.598	0.573	0.636	0.758	0.755	0.753	0.84	1	0.995	0.956
Q fixed	0.913	0.856	0.772	0.98	0.804	0.564	0.733	0.691	0.945	0.88
R fixed	4.18	2.37	3.44	2.25	2.98	0.975	1.54	1.21	1.47	1.15
V fixed	0.819	0.941	0.93	0.751	0.675	1.11	0.924	1.12	0.907	1.02
W fixed	0.904	1.37	0.896	1.23	0.812	1.17	0.897	1.22	1.18	1.37
pThr fixed	0.975	0.775	0.584	0.671	0.815	0.866	1.12	1.3	0.896	1.06
pTyr fixed	1.06	1.05	0.703	0.834	0.882	7.21	1.38	1.76	1.33	1.25

FGFR3, construct: aa397-end, human (from UniProt P22607)
relative phosphorylation
Settings	at +1	at +2	at +3	at +4	at +5	at -1	at -2	at -3	at -4	at -5
A fixed	0.858	0.5	0.465	0.794	1.13	0.737	0.867	0.899	1.1	0.986
D fixed	0.4	1.08	0.618	1.07	1.09	2.51	1.3	1.51	1.22	1.19
E fixed	0.764	1.5	0.479	1.15	0.944	1.71	1.58	1.73	1.42	1.01
F fixed	1.96	1.73	1.58	1.17	1.08	0.94	0.733	0.807	0.933	0.929
G fixed	0.32	0.27	0.378	0.913	1.22	0.452	1.05	0.939	1.25	1.15
H fixed	1.7	0.959	0.873	1.1	0.962	1.47	1.2	1.17	1.07	1.2
I fixed	1.19	0.857	2.07	0.872	0.763	1.1	0.57	0.533	0.738	0.651
K fixed	0.452	0.502	0.297	0.913	0.753	0.438	1.05	0.976	0.935	1.27
L fixed	1.01	1.46	2.18	0.962	0.881	1.05	0.863	0.663	0.759	0.75
M fixed	1.17	1.46	2.26	1.06	1.05	0.766	0.761	0.747	0.901	0.854
N fixed	0.458	1.01	0.416	0.828	0.943	1.33	1.24	1.35	0.924	1.15
P fixed	1.1	0.528	0.562	1.13	1.22	0.786	0.951	0.904	1.2	1.08
Q fixed	0.865	0.85	0.68	1.05	0.923	0.896	1.14	1.01	1.1	1.01
R fixed	0.577	0.607	0.428	0.953	0.814	0.396	1.1	1.04	1.01	1.27
S fixed	0.709	0.566	0.481	0.931	1.07	0.614	1.09	1.17	0.867	0.971
T fixed	0.867	0.712	0.604	0.814	1.03	0.797	1.01	0.946	0.704	0.82
V fixed	1.59	0.952	1.61	0.948	0.939	0.885	0.732	0.595	0.7	0.682
W fixed	2	2.47	2.02	1.34	1.18	1.14	0.767	1.02	1.17	1.02
pThr fixed	0.874	1.88	0.666	0.864	0.943	1.61	1.28	1.44	1.2	1.16
pTyr fixed	3.07	3.28	0.631	0.962	1	3.24	1.85	1.83	1.55	1.31

— the supplement of paper PMC11136658
